test: soluble fraction after stress (log2 fold change); higher = more stays soluble; pooled small domains, quantitative proteomics; details: stress: 50 degC
Procedure, shortened: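 The measure of aggregation propensity here is the base-two logarithm of the fold change in the soluble amount of each protein after stress. A higher value means more of that protein stays in solution. Stress was applied at 50°C to pooled libraries of small protein domains, read out by high-throughput quantitative proteomics.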

Q: For “HMEVVVPDFEKIYIRDLDKFVEGHNVRYEIVDSIYNLEKDKGTVVDQDPEPGSKVKHGRVIYLTVNAML”, which “soluble fraction (log2)” value is on record?
A: The value was -0.207.

Q: Which “soluble fraction (log2)” value does the source give for “HMKLTNNDFIRLKTFMYNNYGINLENKKTLIETRLAIVVKRLGFNDFKSYIDNLMRDKTGEQASIIVGKLT” here?
A: Its value is -0.58.

Q: For “HMAAIPEQVSEEVVSAVKASGIDPGKVTKEQWTSLLKGRRTALGSSSGKLFMLSKAPVGYTLKAVNA”, which “soluble fraction (log2)” value is on record?
A: Its value is 0.333.

Q: For “HMDLVESYDLKIIYTSELINLLIDSSRLEEALNLFKDLKDEIDDVENLGFSAKNNLDYMESKLLHLG”, which “soluble fraction (log2)” value is on record?
A: Its value is -1.83.

Q: With “HMRGVDRPLTLPRHWRRNAGRLVKVTLANGSAVTGRVLDPGEERVTLEVSGERHEVAYADVKKALVQVEF” as the sequence, how does the “soluble fraction (log2)” value read?
A: The value was -0.169.

Q: Which “soluble fraction (log2)” value does the source give for “HMRLTTTPKTARGLTTMNRIIRAAEVEFGRKGYHYTGITDIAQRAKVASGTIYLYFTDKYSLYVHLLT” here?
A: The value was 0.246.

Q: Which “soluble fraction (log2)” value does the source give for “HMGPVPLASAADMEKFYSHLQQVLDEVDFKDRTGSGHLMARLRRLFQRTVLDQNEINILRGILMAVQGRR” here?
A: Its value is -2.85.

Q: For “HMEIYEEDRTKVVNDLMDQILNRQITMDAAATKFINIRNSLGTTITKEDEQNLEMLRGLIFDKT”, which “soluble fraction (log2)” value is on record?
A: The value was 0.16.

Q: Which “soluble fraction (log2)” value does the source give for “HMDKVSYALGLGIGRQLTDMGAKDLNIDDFAQAIKDVLAGGEVKLSDAEAQTIVRNFFDEQEKKQRA” here?
A: Its value is -0.0034.

Q: With “HMGTVVKRNALVHAWTEFNGGRASTKLLALGPGKVGEWIELENPQSGRKLRGEVQVDGSVRLG” as the sequence, how does the “soluble fraction (log2)” value read?
A: Its value is 0.11.

Q: Which “soluble fraction (log2)” value does the source give for “HMHSPTFYVHVVGQVKVPGVYELEVGSRLFDAVIAAGGFKDDADQASVNLARPLSDGEQIVVLKLGDQ” here?
A: The value was -0.251.

Q: Which “soluble fraction (log2)” value does the source give for “HMSNYLKSVEVFDPITNKWSYVSAMKVRRGYVAVVATMDRLYAIGGYDGENYLSTVEMYNPDTN” here?
A: Its value is 0.0631.

Q: Which “soluble fraction (log2)” value does the source give for “HMGRKPATTIPLQVRNAVLDLYRTKYYGANFQHYTELLHEHEGIRISTSSVAKILEAEYILSPK” here?
A: Its value is -1.69.

Q: Which “soluble fraction (log2)” value does the source give for “HMNAISIDEAKKIALAKVSGASDQHIRIEADHDDGRLVYEGEIHYGRVEYEFEIDGSTGAIIEWDADRK” here?
A: Its value is -0.341.

Q: Which “soluble fraction (log2)” value does the source give for “HMPVTAQFDFSKVLAGRTLKDGEFSFVLKDKNGTVLQTKTNDASGKVAFDALIYKNNEVGEHKYTVEEVI” here?
A: The value was 0.208.

Q: For “HMKTGNIVMVNLGWKGKYYSIKMFFPQVSKPSRKDVQDQIEKIYPGGKLYTFVVSNYEPGEPMLHA”, which “soluble fraction (log2)” value is on record?
A: Its value is -1.06.

Q: With “HMATVNIGNLTFTHKGDYASGTTYAKNDVVYYSTNGNAYIAKQATQGNAPTSTAHWDVFAAGSGG” as the sequence, how does the “soluble fraction (log2)” value read?
A: Its value is -0.161.

Q: For “HMENMETSDIVARYSNMPGGIIEAFHEIVDRHGFLSQEAIIEAARGFGISVAEAYGVATFYSMFS”, which “soluble fraction (log2)” value is on record?
A: Its value is -0.336.

Q: Which “soluble fraction (log2)” value does the source give for “HMATVHPIRIQGGMTTQQGGKTVWLWVSDEGRLMTEDEIAGESGGTVSSRMVRGVRVLTGTGVIYG” here?
A: The value was -2.02.

Q: Which “soluble fraction (log2)” value does the source give for “HMKYVDYYATLGVARDADLATITKAYRKLARQTHPDLNQGADNEARFKAAAEAYATLKHPEKRAAYDELGQ” here?
A: The value was -0.00408.

Q: Which “soluble fraction (log2)” value does the source give for “HMDVRLAKVYMLPANPYLRFIEFDDGTHGKFRAKPGKFGLGSVVKVKREDGDMYTLEGNYDGKDRL” here?
A: Its value is -0.555.

Q: For “HMHVLAVDEALHKLTELNELHAKIVEMRFFSGMTVQEVADELGVSKRKIESEWTMIKAWLRKELN”, which “soluble fraction (log2)” value is on record?
A: The value was -0.665.

Q: With “HMVYLPSSIKNIPTKYGEMMVANFKMDELQANSKNGWVSMVISERREPSEKGATHYAYVNTY” as the sequence, how does the “soluble fraction (log2)” value read?
A: The value was 0.432.

Q: With “HMDPPVDLTPREQQVLSRIALGMSDKAIAAELGVSHQTVRNHVARIYAKIKVHSRSQAIVWAREKGIP” as the sequence, how does the “soluble fraction (log2)” value read?
A: Its value is -0.185.

Q: Which “soluble fraction (log2)” value does the source give for “HMSETLESYTTRLKQLEEIADSFQGVDKTFAIQAGREIRVMVVPEQISDDDMILLARDISNQIEENLDY” here?
A: The value was -0.122.

Q: With “HMFPNSFSEREKEVVDLLLQAKSNKQIAFSLGITNRTVEYHLGNIFAKLGVSSRSEAILTITNYKNQ” as the sequence, how does the “soluble fraction (log2)” value read?
A: Its value is -2.01.

Q: For “HMKKIDVEVVRSQLIAWMADNGKSQAEVSKSMGISASALSMFIKGTYTGDNEQIGRKAAALMDLVHRQSA”, which “soluble fraction (log2)” value is on record?
A: The value was 0.0121.

Q: Which “soluble fraction (log2)” value does the source give for “HMQLDLTSTLDHMYKQMRNDHPRALLMAVEKEMVLRALKETDGNQLRASDILGISRSTLRKRIEEFDINS” here?
A: Its value is -1.09.

Q: Which “soluble fraction (log2)” value does the source give for “HMATFTPYLVRITASVLNIRKGPGTTYAVTGQIKDRGVYTIVEQKGNWGRLKSGAGWISLSYTKK” here?
A: Its value is -3.12.

Q: With “HMPTPASGSSGYINATNVNFRTGPATSYKSISKLAKNTAVTILGTSGNWYKVTVGSLGKNGYVFATYVTVS” as the sequence, how does the “soluble fraction (log2)” value read?
A: Its value is -0.556.

Q: For “HMQDTRSHARKMLAAIEALLEGRSGSDIQAYTIHNRSITKMTVPELVKWRSYYQQQVRSEDAAASLA”, which “soluble fraction (log2)” value is on record?
A: Its value is -0.129.

Q: With “HMSDESRAEIVSSAKRLFQQYGYKKTTVSDIAKAMGKVKSAIYYYFPDKESLLRAVIDEEVG” as the sequence, how does the “soluble fraction (log2)” value read?
A: Its value is -0.0483.

Q: With “HMLDPKVFVGKAGINEGIAKLLLQAFDKADLVKVRFTAERDVMETQMQELARLTGSEVIGNVGRTATF” as the sequence, how does the “soluble fraction (log2)” value read?
A: The value was -0.00291.

Q: Which “soluble fraction (log2)” value does the source give for “HMAVSNWQKLVSSIQTQLKILALYHGPEDGIYGPNTRSAIMLYEENIGLPVTGEPSRELLAHMLDQTD” here?
A: The value was -0.869.

Q: For “HMSSSDYDVYNKAINLMLNLLKEPKSIEEVTASLNITKSQAITWINRALNEGKIIKTNRPVRYVVNN”, which “soluble fraction (log2)” value is on record?
A: Its value is -0.596.

Q: Which “soluble fraction (log2)” value does the source give for “HMKERVSWDERLERFAKHITENESLPYPSSKEYAWFEENKALYDAGELEPVRAQSFAFLLKIMRRMNL” here?
A: The value was -0.491.

Q: With “HMREYEKAVDYVRRMISSGSLNVGDRLPTERELSLELDISRNSTREAMRMLENMGIIVSRHGSGNYISGN” as the sequence, how does the “soluble fraction (log2)” value read?
A: Its value is -0.594.

Q: For “HMDSINGEASISRELHGTRFDQAAAILFPEFSRSRLQAWIGAGALTLDGQTARAKDKVTQGQHLVLAAAVE”, which “soluble fraction (log2)” value is on record?
A: Its value is -0.0684.

Q: With “HMTSGPAWPALSAQQRSVLAPLQRDWHTIDAARKAKWLEVAARFPSMPAEERQRVQERMAEWA” as the sequence, how does the “soluble fraction (log2)” value read?
A: Its value is -0.0518.

Q: For “HMQVSDEGPIKAILQEVLDKSPTQLADYASGKVKLRQYFFGEAMKALKGKANPQVINKLLDEMLPPVAA”, which “soluble fraction (log2)” value is on record?
A: The value was 0.079.

Q: Which “soluble fraction (log2)” value does the source give for “HMRYNPETTAGRRGLIIKMLDEYGQVNVNELSRYFNVSEVTVRNDLAYLERKNLLIRARGGAIKTE” here?
A: Its value is -0.941.

Q: Which “soluble fraction (log2)” value does the source give for “HMARAESYGDIARLEQLLDEHANIAALDPGKLPAVRQQIWTLMRAARMDHDLGLAERPEDDSFDDMLLHV” here?
A: Its value is 0.133.

Q: For “HMADEGFRQTVLAVLARWESKIHHGQYNALKAKVMNGNWSSFVKQVVKFQGKFIHPDAAKELLGLFG”, which “soluble fraction (log2)” value is on record?
A: The value was -0.0749.

Q: For “HMQQRTVEHVDTAVEALALSIGERAGVDLPYMAHLTGKTQEDLIEDLTGVIFPVPGTEPLRYVTADDYLS”, which “soluble fraction (log2)” value is on record?
A: The value was 0.028.

Q: For “HMENRILLSEDSLKHLAQDIPIDIIEKLSVLKDQIYHRYDDFNSIVQGLLGGENYLKYKDNILSFVEQ”, which “soluble fraction (log2)” value is on record?
A: The value was 0.0624.

Q: With “HMQNDILIQADEIVGDYFDMDKEALKMNKQAVIADIEKRQATAQGDEASALHYAKQKVENEFEDDGSQKD” as the sequence, how does the “soluble fraction (log2)” value read?
A: Its value is 0.185.

Q: Which “soluble fraction (log2)” value does the source give for “HMLEASVYTAEKSGDRLDAFLAEQAGITRSYAQKLIEGGQVTLGGVVPKKNYKLSAGEQVELILPEN” here?
A: Its value is 0.0254.

Q: With “HMATEYIIPTVTNKKLEEAIGIAQLRGFEISVDEYKPSDIDEGTVLEQSPAAGTNAKQGDTISVTVSSG” as the sequence, how does the “soluble fraction (log2)” value read?
A: The value was 0.294.

Q: Which “soluble fraction (log2)” value does the source give for “HMRDGHEQLQGVLSAIKFHQANFLIGVLDDGTTVKGNMLSPQVGLEYTFRGRRERHPRWGEQFAFMDYRV” here?
A: The value was -2.76.

Q: With “HMSLTMPKLIGMHLFQAERTLNYYGFQYKVEGPDSASVVIDQYPKEGVTVDPHYPITLKIGPSA” as the sequence, how does the “soluble fraction (log2)” value read?
A: Its value is -0.158.

Q: With “HMDYNMEEWSLTADQLKSGDTILILNLGKTATLLESTRGKKNVRVRMGNIKTIVETSSIRGNPHQ” as the sequence, how does the “soluble fraction (log2)” value read?
A: Its value is -0.878.

Q: For “HMIIVMKRNATETQIDHVVRWVESIGYRAHRSNGTEQTVVKAVGGERGGEELKYLAALSGVEKVVPIR”, which “soluble fraction (log2)” value is on record?
A: Its value is -0.0291.

Q: With “HMGSPVTAVMNRVLNETERQIVTLHVISGFKHREIAELLEKPVGTVLWTYNNALGKMRKAMQRE” as the sequence, how does the “soluble fraction (log2)” value read?
A: Its value is -1.33.

Q: With “HMEIVQVIAQNIQDLLDKHKISVSELSGYLGISRQTLTNYLKTTSTIDSVQLVKIADFFNIPAEYLLKDH” as the sequence, how does the “soluble fraction (log2)” value read?
A: The value was -0.968.

Q: For “HMARAVSPLEAIPGVGPRRRQQLLKQLGGMQEVARAGVEDLSRVPGISRALAQQIYDAFHGD”, which “soluble fraction (log2)” value is on record?
A: The value was -0.149.
